From patent US10874712B2, “Methods, compounds and compositions for modulating blood brain barrier integrity and re-myelination” (University Health Network, priority 2015, dated 2020) come the findings set out here.

For one series, the system named is EAE-induced mice. The series is described as follows: Histological staining (H&E, Luxol Fast Blue) of cervical spinal cord, inflammatory index. It counts as in vivo, mouse. Particulars: EAE day 18; vs vehicle. How it is done:
At day 18 post-EAE induction, mice were trans-cardially perfused with 20 mL PBS followed by 20 mL 4% paraformaldehyde in PBS (PFA) (Electron Microscopy Sciences) and 30 μm spinal cord cryosections were stained. The slides were washed in PBS for 3 min, followed by a 30 s wash in 50% ethanol (EtOH) and incubated overnight in Luxol Fast Blue (LFB) at 60° C. The sections were washed in 95% EtOH for 5 min, distilled water for 5 min prior to de-staining with […] for 10 min, and were then washed in 70% EtOH for 30 s, 5 min in MilliQ H2O, and sections were immersed in Harris Hematoxylin (Sigma-Aldrich) for 20 min and were rinsed in warm water to remove excess stain. Samples were dehydrated in 95% EtOH, immersed in alcoholic eosin Y (Sigma-Aldrich) for 15 s, dehydrated twice in 95% EtOH for 5 min, 100% EtOH for 5 min and xylene for 5 min. Slides were mounted with Permount (Fisher Scientific) and air-dried overnight at room temperature. Luxol Fast Blue (LFB) staining was quantified using relative staining intensity using Image J software. All intensities were normalized to a sham mouse spinal cord.
Cellular infiltration was quantified using an inflammatory index: 0, no inflammation; 1, cellular infiltration only in the perivascular areas and meninges; 2, mild cellular infiltration in the parenchyma (<10 cells); 3, moderate cellular infiltration in the parenchyma (10-49 cells); 4, moderate cellular infiltration in the parenchyma (50-99 cells); and 5, severe cellular infiltration in parenchyma (>100 cells).

Series [1] is described as follows: sRGMc level in sera of treated mice by ELISA. Type of series: in vivo, mouse. How it is done:
Blood collected from the saphenous veins of mice induced with EAE at 0, 5, 10, 18 and 30 days in Microvette® CB300 capillary tubes (Starstedt) was spun down at 2000 rcf for 10 min and stored at −80° C. sRGMa and sRGMc in the sera were detected using ELISA kits for sRGMa (MRGMAO, R&D) and sRGMc (MRGMCO, R&D) according to manufacturer's instructions.
To ensure that over-expression of sRGMc was efficient, sera from 3 RGMc-treated mice were collected and compared to 3 vehicle-treated mice at 24 h post-treatment by ELISA. […] The mice were then observed and scored twice daily at 12 h intervals for 18 days. […] Whether intra-peritoneal (i.p) injections of RGMc could overcome the transient effects observed with intravenous administration of this protein was explored. […] Next the levels of RGMc in the sera of sham-treated animals and mice induced with EAE at day 10 as well as in EAE animals (day 10) that were injected with RGMc were analyzed. […] Thus, EAE reduced RGMc levels and over-expression of sRGMc in EAE-induced mice is beneficial in reducing the incidence and the severity as well as delaying the onset of disease.
On the technique in general: In an ELISA, binding on a coated surface is turned into a signal by an enzyme label.

B1: sRGMc: truncated form of RGMc with the GPI anchor sequence removed, released as a soluble protein (SEQ ID NOs: 1 and 3) (protein, listed as Homo sapiens)
chain: CKILRCNAEYVSSTLSLRGGGSSGALRGGGGGGRGGGVGSGGLCRALRSYALCTRRTARTCRGDLAFHSAVHGIEDLMIQHNCSRQGPTAPPPPRGPALPGAGSGLPAPDPCDYEGRFSRLHGRPPGFLHCASFGDPHVRSFHHHFHTCRVQGAWPLLDNDFLFVQATSSPMALGANATATRKLTIIFKNMQECIDQKVYQAEVDNLPVAFEDGSINGGDRPGGSSLSIQTANPGNHVEIQAAYIGTTIIIRQTAGQLSFSIKVAEDVAMAFSAEQDLQLCVGGCPPSQRLSRSERNRRGAITIDTARRLCKEGLPVEDAYFHSCVFDVLISGDPNFTVAAQAALEDARAFLPDLEKLH
In the case of B1, in the series on EAE-induced mice, the “extent of cellular infiltrates in cervical spinal cord” value is “significantly reduced”, the “extent of de-myelination (Luxol Fast Blue)” value was “significantly reduced” and the inflammatory index score result is “significantly lower”. For the same molecule, in series [1] (24 h post-treatment, ELISA, 3 mice per group), the “increase in sRGMc levels in sera compared to vehicle-treated animals” value was 3 fold. For the same molecule, in series [1] (EAE day 10, compared to sham-treated animals), the “RGMc levels in sera of EAE mice after RGMc injection” value is recorded as “restored”. Besides, the “stability of sRGMc treatment in serum” value in series [1] (ELISA, FIG. 4F) is reported as “stable for 24 h post treatment”.
